Results from patent publication US20260218138A1, “ENGINEERED ACYLTRANSFERASES HAVING ALTERED SUBSTRATE SPECIFICITY” (KEZBIOSOLUTIONS GMBH, priority 2022, published 2026).
Where a chain is given by its changes, count along the chain named. Names may count otherwise. Read-outs that look alike come from different tables or passages of the source.

Legend:
[1] = Screen: transfer of malonyl-moieties from Mal-CoA to N-(2-mercaptoethyl)-hexanamide (enzyme-coupled assay); assay type: biochemical, murine; settings: fixed substrate and acceptor concentrations; FIG. 4
Description: Specific transfers from Mal-CoA to N-(2-mercaptoethyl)-hexanamide were analyzed at fixed substrate and acceptor concentrations. […] Shown error bares reflect standard deviations from triplicates.
Further engineered mutants were expressed, purified and analyzed, building up on the previous studies. A screen for fifty different exemplary mutants was performed analyzing the transfer of malonyl-moieties from CoA to N-(2-mercaptoethyl)-hexanamide. Four solutions were prepared as 4× concentrated stocks in the assay buffer. Solution 1 contained the acyltransferases at the concentration range of 0.01 μM-10 μM and were arranged in four groups depending on their individual turnover rates to achieve good signal to noise ratios. Solution 2 contained the enzyme-coupled system including 8 mM α-ketoglutaric acid, 1.6 mM NAD+, 1.6 mM TPP and 60 mU/100 μL αKGDH. Solution 3 contained a fixed concentration of malonyl (Mal)-CoA at 200 μM and solution 4 contained the acceptor N-(2-mercaptoethyl)-hexanamide at 200 μM. 5 μL of Solutions 1-3 were pipetted into a 384-well Small Volume HiBase Microplates (Greiner Bio-one) and mixed manually. The reactions were started by adding 5 μL of solution 4 with an automatic multichannel pipette (ClipTip). The reaction progress was recorded using the following settings: 348-20 nm; emission: 476-20 nm; gain: 1700; focal height: 12.1 mm; flashes: 10; orbital averaging: off. […]

[2] = Comparative data from Rittner et al. 2018; cited from earlier work
[3] = Enzyme-coupled assay: transfer of acyl-moieties from MMal-CoA to the ACP; assay type: biochemical; settings: substrate MMal-CoA, acceptor ACP from murine FAS
Description: (§1) An enzyme-coupled assay was performed to analyze the transfer of acyl-moieties from CoA to the ACP. Four solutions were prepared as 4× concentrated stocks in the assay buffer. Solution 1 contained the acyltransferase at the concentration range of 0.01 μM-10 μM, depending on the transfer kinetics to achieve good signal to noise ratios. Solution 2 contained the enzyme-coupled system including 8 mM α-ketoglutaric acid, 1.6 mM NAD+, 1.6 mM TPP and 60 mU/100 μL αKGDH. Solution 3 contained the methylmalonyl (MMal)-CoA at concentrations between 0.1 μM and 1,000 μM and solution 4 contained the ACP from murine FAS as a standalone protein at 240 μM. 5 μL of Solutions 1-3 were pipetted into a 384-well Small Volume HiBase Microplates (Greiner Bio-one) and mixed manually. The reactions were started by adding solution 4 with the dispenser system of the microplate reader (ClarioStar, BMG labtech). The reaction progress was recorded using the following settings: 348-20 nm; emission: 476-20 nm; gain: 1500; focal height: 11.9 mm; flashes: 17; orbital averaging: off.

[4] = In-depth kinetics: enzyme-coupled assay, malonyl transfer from Mal-CoA to ACP; assay type: biochemical, murine; settings: substrate A (Mal-CoA)
Description: (§2) Y-axes show turnover in s^−1 and x-axes show substrate concentration in μM. Apparent kinetic parameters at a fixed acceptor concentration of ACP of 85 μM were determined by fitting the data points with the Michaelis-Menten function. Shown error bares reflect standard deviations from triplicates.
as §1
(§3) In-depth kinetic analysis results allowing a comparison of enzyme kinetic parameters for the transfer of malonyl-moieties from either Mal-CoA or 3-Oxo-3-[[2-[(1-oxohexyl)amino]ethyl]thio]-propanoic acid to the ACP are shown for a representative mutant (A35) herein. Enzyme kinetics were determined with the established enzyme-coupled assay for Mal-CoA kinetics and a variation of the new thiol quantifying assay using ThioGlo.
Enzyme-coupled assay was performed as described in Example 3 with 4× concentrated stocks. The enzyme concentration of A35 in Solution 1 was 4.2 μM, the substrate concentrations of Mal-CoA in Solutions 3 were between 8-400 μM and the acceptor concentration of ACP in Solution 4 was 340 μM.

[5] = In-depth kinetics: thiol quantification assay (ThioGlo), malonyl transfer from non-CoA substrate to ACP; assay type: biochemical, murine
Description: as §2
To verify the re-engineered mutant activity, having a substrate specificity altered from natural CoA substrates to non-CoA substrates, an alternative method to quantify specific turnover rates for non-CoA substrates was established. Such non-CoA substrates are not detectable by the enzyme-coupled assay. We used a thiol-sensitive fluorophore (ThioGlo4; Yi et al. 2009) to quantify the released free thiol groups from the substrate 3-Oxo-3-[[2-[(1-oxohexyl)amino]ethyl]thio]-propanoic acid after the enzyme-specific transfer of the malonyl moiety to a non-thiol acceptor. Briefly, three solutions were prepared in either a twofold concentration or as 4× concentrated stocks in the assay buffer. […] Free thiols were detected by adding 10 μL of 120 μM ThioGlo in the buffer 250 mM potassium phosphate, 1 mM EDTA and 10% glycerol, mixing and fluorescence detection at the microplate reader (ClarioStar, BMG labtech) using the following settings: 400-20 nm; emission: 465-20 nm; gain: 700; focal height: 12.5 mm; flashes: 20; orbital averaging: off. […]
as §3
A variation of the thiol quantification assay in Example 5 was established to be able to separate the liberated thiol groups from 3-Oxo-3-[[2-[(1-oxohexyl)amino]ethyl]thio]-propanoic acid after acyl-transfer from the thiol groups of the acceptor ACP. […]

[6] = acceptor ACP fixed at 85 μM, apparent parameters
[7] = substrate B (3-Oxo-3-[[2-[(1-oxohexyl)amino]ethyl]thio]-propanoic acid), acceptor ACP fixed at 85 μM, apparent parameters

B1: Mutant A48: engineered murine acyltransferase, mutations T161A F184E R286D K186D D160R (protein)
chain: NKRPLWFICSGMGTQWRGMGLSLMRLDSFRESILRSDEAVKPLGVKVSDLLLSTDERTFDDIVHAFVSLTAIQIALIDLLTSVGLKPDGIIGHSLGEVACGYADGCLSQREAVLAAYWRGQCIKDAHLPPGSMAAVGLSWEECKQRCPAGVVPACHNSERAVTISGPQAAVNEFVEQLKQEGVEADEVRTGGLAFHSYFMEGIAPTLLQALKKVIREPRPRSARWLSTSIPEAQWQSSLARTSSAEYNVNNLVSPVLFQEALWHIPEHAVVLEIAPHALLQAVLKDGVKSSCTIIPLMKRDHKDNLEFFLTNLGKVHLT
turnover rate, transfer from Mal-CoA to N-(2-mercaptoethyl)-hexanamide [1]: did not give a detectable signal

B2: (WT): wild type murine FAS malonyl-acetyl-transferase (MAT), no mutation (protein, listed as Mus musculus)
chain: B1 chain with R160D, A161T, E184F, D186K, D286R
Km [2]: 0.62 µM
kcat [2]: 4.000 s⁻¹
Km [3]: 0.53 µM
kcat [3]: 1.297 s⁻¹

B3: Mutant A35: engineered murine acyltransferase, mutations T161L F184L R286L K186D R300D (protein)
chain: B1 chain with R160D, A161L, E184L, D286L, R300D
Km [4, 6]: 25 µM
kcat [4, 6]: 0.01 s⁻¹
Factor ([4]; acceptor ACP, kcat/Km relative to substrate A): 1
Km [5, 7]: 30 µM
kcat [5, 7]: 5.75 s⁻¹
Factor ([5]; substrate B (non-CoA substrate), acceptor ACP, kcat/Km relative to substrate A (Mal-CoA)): 467
